Measured values taken from the nanobody polyreactivity screen of Harvey et al. (2022).

test: yeast display, Sf9 membrane polyspecificity reagent, FACS + sequencing; frameworks hold sequencing errors
In short: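 After 36–48 hours of galactose induction, yeast (Saccharomyces cerevisiae BJ5465) displaying a synthetic nanobody library were stained at 4 °C for 1 hour with 10% biotinylated, detergent-solubilized Sf9 membrane reagent. Streptavidin microbeads enriched the stained cells before FACS sorting into low and high (top ~1%) gates on anti-HA and streptavidin fluorescence. Each clone's polyreactivity label reflects its gate of origin.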

Q: Which “polyreactivity (PSR sort gate)” value does the source give for “QVQLVESGGGLVQAGGSLRLSCAASGSIFVYYDMGWYRQAPGKERELVAAISTTCGRTYYADSVKGRFTISRDNAKNTVYLQMNSLKPEATAVYYCAARYTIPYKRYDYWGQGPQVTVSS” here?
A: high polyreactivity

Q: Which “polyreactivity (PSR sort gate)” value does the source give for “QVQLVESGGGLVQAGGSLRLSCAASGSIFWDYAMGWYRQAPGKERELVAAISGSGTSTYYADSVKGRFTISRDNAKNTVYLQMNSLKPEDTAVYYCAARIWTGRGRKLGNGYDYWGQGTQVTVSS” here?
A: low polyreactivity

Q: Which “polyreactivity (PSR sort gate)” value does the source give for “QVQLVESGGGLVQAGGSLRLSCAASGSIFWDYAMGWYRQAPGKERELVAAISSNGGNTYYADSVKGRFTISRDNAKNTVYLQMNSLKPEDTAVYYCAARAKRRHGYWGQGTQVTVSS” here?
A: high polyreactivity

Q: For “QVQLVESGGGLVQAGGSLRLSCAASGSIFWGYAMGWYRQAPGKERELVATITYGGDSTYYADSVKGRFTISRDNAKNTVYLQMNSLKPEDTAVYYCNVGVEPYDYDYWGQGTQVTVSS”, which “polyreactivity (PSR sort gate)” value is on record?
A: low polyreactivity

Q: For “QVQLVESGGGLVQAGGSLRLSCAASGSIFWGYDMGWYRQAPGKERELVARISYSGGSTSYADSVKGRFTISRDNAKNTVYLQMNSLKPEDTAVYYCAADEGGFWWTYPYDSWGQGTQVTVSS”, which “polyreactivity (PSR sort gate)” value is on record?
A: low polyreactivity

Q: For “QVQLVESGGGLVQAGGSLRLSCAASGSIFWLYAMGWYRQAPGKEREFVAAITTSGSSTRYADSVKGRFTISRDNAKNTVYLQMNSLKPEDTAVYYCAARNRTFFQPTYYYWGQGTQVTVSS”, which “polyreactivity (PSR sort gate)” value is on record?
A: high polyreactivity

Q: For “QVQLVESGGGLVQAGGSLRLSCAASGSIFWNYAMGWYRQAPGKEREFVASISRSGGSTYYADSVKGRFTISRDNAKNTVYLQMNSLKPEDTAVYYCAARGVKISYNYWGQGTQVTVSS”, which “polyreactivity (PSR sort gate)” value is on record?
A: high polyreactivity

Q: For “QVQLVESGGGLVQAGGSLRLSCAASGSIFWPNAMGWYRQAPGKERELVAAISWGTGSTYYADSVKGRFTISRDNAKNTVYLQMNSLKPEDTAVYYCAADGAYLDPYYDYWGQGTQVTVSS”, which “polyreactivity (PSR sort gate)” value is on record?
A: low polyreactivity

Q: Which “polyreactivity (PSR sort gate)” value does the source give for “QVQLVESGGGLVQAGGSLRLSCAASGSIFWPNTMGWYRQAPGKERELVAGISFGGGSTYYADSVKGRFTISRDNAKNTVYLQMNSLKPEDTEVYYCNAPGPVISRRTDSYWYGWYDYWGQGTQVTVSS” here?
A: low polyreactivity

Q: With “QVQLVESGGGLVQAGGSLRLSCAASGSIFWPYAMGWYRQAPGKERELVAGISSGGSTYYADSVKGRFTISRDNAKNTVYLQMNSLKPEDTAVYYCAARWQWLNGYYYWGQGTQVTVSS” as the sequence, how does the “polyreactivity (PSR sort gate)” value read?
A: high polyreactivity

Q: For “QVQLVESGGGLVQAGGSLRLSCAASGSIFWQNAMGWYRQAPGKERELVARITSGGSTNYADSVKGRFTISRDNAKNTFYLQMNSLKPEDTGVYYCNRVRYRSYFAYYYWGQGTQVTVSS”, which “polyreactivity (PSR sort gate)” value is on record?
A: high polyreactivity

Q: With “QVQLVESGGGLVQAGGSLRLSCAASGSIFWRYAMGWYRQAPGKERELVAAITWSGGTSYADSVKGRFTLSRDNAKNTVYLQMNSLKQEDTAVYYCIADGLSYYLYDYWGQGTQVTVSS” as the sequence, how does the “polyreactivity (PSR sort gate)” value read?
A: low polyreactivity

Q: For “QVQLVESGGGLVQAGGSLRLSCAASGSIFWSYAMGWYRQAPGKERELVAAITTDGGTNYADSVKGRFTISRDNAKNTVYLQMNSLKPEDTAVYYCAARYGTSYIVRWTYYAFDYWGQGTQVTVSS”, which “polyreactivity (PSR sort gate)” value is on record?
A: low polyreactivity

Q: With “QVQLVESGGGLVQAGGSLRLSCAASGSIFWSYAMGWYRQAPGKERELVASITRSGGSTYYADSVKGRFTISRDNAKNTVYLQMNSLKPEDTAVYYCNARRTTRWGSSKYEYDYWGQGTQVTVSS” as the sequence, how does the “polyreactivity (PSR sort gate)” value read?
A: high polyreactivity

Q: Which “polyreactivity (PSR sort gate)” value does the source give for “QVQLVESGGGLVQAGGSLRLSCAASGSIFWVNAMGWYRQAPGKERELVAAITWSAGSTYYADSVKGRFTISRDNANNTVYLQMNSLKPEDTAVYYFAAGVAWYYWTLDYWGQGTQVTVSS” here?
A: low polyreactivity

Q: For “QVQLVESGGGLVQAGGSLRLSCAASGSIFWVYAMGWYRQAPGKERELVAAISNSGSTNYADSVKGRFTISRDNAKNTVYLQMNSLKPEDTAVYYCAKDSLVDHVGGYDYWGQGTQVTVSS”, which “polyreactivity (PSR sort gate)” value is on record?
A: low polyreactivity

Q: With “QVQLVESGGGLVQAGGSLRLSCAASGSIFWWNAKGWYRQAPGKERELVAAINWSTGRTYYADSVKGRFTISRDNAKNTVYLQMNSLKPEDTAVYYCNADSKSSYYWYLWYNYWGQGTQVTVSS” as the sequence, how does the “polyreactivity (PSR sort gate)” value read?
A: low polyreactivity

Q: Which “polyreactivity (PSR sort gate)” value does the source give for “QVQLVESGGGLVQAGGSLRLSCAASGSIFWYAMGWYRQAPGKETELVAAISRGGSTYYADSVKGRFTISRDNAKNTVFLEMYRLKPEDTAVYYCATAYRYPRNAYFQRMDSWGQGTQVTVSS” here?
A: high polyreactivity

Q: For “QVQLVESGGGLVQAGGSLRLSCAASGSIFWYYAMGWYRQAPGKERELVASISRRGGSTYYADSVKGRFTISRDNAKNTVYLQMNSLKPEDTAVYYCAAYSRTTCSTVQGTYDYWGQGTQVTVSA”, which “polyreactivity (PSR sort gate)” value is on record?
A: low polyreactivity

Q: Which “polyreactivity (PSR sort gate)” value does the source give for “QVQLVESGGGLVQAGGSLRLSCAASGSIFWYYAMGWYRQAPGKERELVASISSGGSTTYADSVKGRFTISCDNAKNTVYLQMISLKPEDTAVYYCNADYFGGGDYWGQGTQVTVSS” here?
A: low polyreactivity

Q: For “QVQLVESGGGLVQAGGSLRLSCAASGSIFWYYAMGWYRQAPGKERELVASITSGGSTNYADSVKGRFTISRDNAKNTVYLQMISLKPEDTAVYYCNTDDDSSSTGYYSWGQGTQVTVSS”, which “polyreactivity (PSR sort gate)” value is on record?
A: low polyreactivity

Q: Which “polyreactivity (PSR sort gate)” value does the source give for “QVQLVESGGGLVQAGGSLRLSCAASGSIFYANAMGWYRQAPRKERELVAAISWSGGRTYYADSVKGRFTISRDNAKNTVYLQMISLKPEDTAVYFCAAVTRGLRFVYWGQGTQVTVSS” here?
A: high polyreactivity

Q: For “QVQLVESGGGLVQAGGSLRLSCAASGSIFYANAMGWYSQAPGKERELVAVISSGGGTYADSVKGRFTISRDNAKNTVYLQMNSLKPEDTAVYYCAADYTRESSMYYWGQGTQVTVSS”, which “polyreactivity (PSR sort gate)” value is on record?
A: low polyreactivity

Q: For “QVQLVESGGGLVQAGGSLRLSCAASGSIFYDYTMGWYRQAPGKERELVAAITSDGSTYYADSVKGRFTISRDNAKNTVYLQMKSLKPEDTAVYYCAVFSDVFLYYYGETYDYWGQGTQVTVSS”, which “polyreactivity (PSR sort gate)” value is on record?
A: high polyreactivity

Q: For “QVQLVESGGGLVQAGGSLRLSCAASGSIFYFNAMGWYRQAPGKEMELVATIRSGDGRTYYADSVKGRFTISRDNAKNTVYLQMNSLKPEDTAVYYCNASRVVYRQAYLYGYDYWGQGTQVTVSS”, which “polyreactivity (PSR sort gate)” value is on record?
A: low polyreactivity

Q: For “QVQLVESGGGLVQAGGSLRLSCAASGSIFYFNAMGWYRQAPGKERELVAAINSGGSTYYADSVKGRFTISRDNAKNTVYLQMNSLKPEDTAVYYCAAVKVDYYITMYYWGQGTQVTVSS”, which “polyreactivity (PSR sort gate)” value is on record?
A: high polyreactivity

Q: With “QVQLVESGGGLVQAGGSLRLSCAASGSIFYFNAMGWYRQAPGKERELVASITSGGSTNYADSVKGRFTISRDNAKNTVYLQMNSLKPEDTAVYYCNKRVHYIAGRGYDYWGQGNQVTVSS” as the sequence, how does the “polyreactivity (PSR sort gate)” value read?
A: low polyreactivity

Q: With “QVQLVESGGGLVQAGGSLRLSCAASGSIFYFNAMGWYRQAPGKERQLVAAITSGGNTYYADSVKGRFTISRDNAKNTVYLQMNSLKPEDTAVYYCAKRGFRFPYPSLDYWGQGTQVTVSS” as the sequence, how does the “polyreactivity (PSR sort gate)” value read?
A: low polyreactivity

Q: With “QVQLVESGGGLVQAGGSLRLSCAASGSIFYFYAMGWYRQAPGKERELVASIRWSCGRTRYADSVKGRFTISRDNAKNTVYLQMNSLKPEDTAVYYCAARGGGRPYDYWGQGTQVTVSS” as the sequence, how does the “polyreactivity (PSR sort gate)” value read?
A: high polyreactivity

Q: With “QVQLVESGGGLVQAGGSLRLSCAASGSIFYFYTMGWYRQAPGKERELVAAISGGGGSTYYADSVTGRFTISRDNAKNTVYLQMNSLKPEDTAVYYCAADGAGWLDYGYWGQGTQVTVSS” as the sequence, how does the “polyreactivity (PSR sort gate)” value read?
A: low polyreactivity

Q: With “QVQLVESGGGLVQAGGSLRLSCAASGSIFYGNAMGWYRQAPGKERELVAAISARGGSTNYADSVKGRFTISRDNAKNTVYLQMNSLKPEDTSVYYCAADTPVWSGYWYYYWGQGTQVTVSS” as the sequence, how does the “polyreactivity (PSR sort gate)” value read?
A: low polyreactivity

Q: With “QVQLVESGGGLVQAGGSLRLSCAASGSIFYGNAMGWYRQAPGKERELVAAISKRGGSTYYADSVKGRFTISRDKAKNSVYLQMNSLKPEDTAVYYCAKATAGHTEYYYWGQGTQVTVSS” as the sequence, how does the “polyreactivity (PSR sort gate)” value read?
A: high polyreactivity

Q: For “QVQLVESGGGLVQAGGSLRLSCAASGSIFYGNAMGWYRQAPGKERELVADITWSGGSTYYADSVKGRFTISRDNAKNTVYLQMNSLKPEDTAVYYCAAKVKHWYYPYYYWGQGTQVTVSS”, which “polyreactivity (PSR sort gate)” value is on record?
A: low polyreactivity

Q: Which “polyreactivity (PSR sort gate)” value does the source give for “QVQLVESGGGLVQAGGSLRLSCAASGSIFYGNAMGWYRQAPGKERELVAGISWSGGSTYYADSVKGRFTISRDNAKNTVYFQMNSLKPEDTAVYYCATVADEPRAYSGYEESDYWGQGTQVTVSS” here?
A: low polyreactivity

Q: For “QVQLVESGGGLVQAGGSLRLSCAASGSIFYGNAMGWYRQAPGKERELVAGISWSGGSTYYADSVKGRFTISRDNAKYTVYLQMNSLKPEDTAVYYCATVADEPRAYSGYEESDYWGQGTQVTVSS”, which “polyreactivity (PSR sort gate)” value is on record?
A: low polyreactivity

Q: With “QVQLVESGGGLVQAGGSLRLSCAASGSIFYGNTMGWYRQEPGKERELVAPIRSVGRTYYADSVKGRYTISRDNAKNTVYLQMYSLKPEDTAVYYCAADPRSYFTSEYWGQGTQVTVSS” as the sequence, how does the “polyreactivity (PSR sort gate)” value read?
A: high polyreactivity

Q: Which “polyreactivity (PSR sort gate)” value does the source give for “QVQLVESGGGLVQAGGSLRLSCAASGSIFYGYAMGWYRQAPGKEREFVAAITWSGGSTHYADSVKGRFTNSRDNAKNTVYVQMNSLKPEDTAVYYCAAPSYGNYPYRSYVWYGYWGQGTQVTVSS” here?
A: high polyreactivity

Q: Which “polyreactivity (PSR sort gate)” value does the source give for “QVQLVESGGGLVQAGGSLRLSCAASGSIFYGYAMGWYRQAPGKEREFVASINSGVGSTYYADSVKGRFTISRDNAKNTVYLQMNSLKPEDTAVYYCNKVHRSFTYNDGQTPAYDYWGQGTQVTVSS” here?
A: low polyreactivity

Q: For “QVQLVESGGGLVQAGGSLRLSCAASGSIFYGYAMGWYRQAPGKERELVAAISSSGGTTYYADSVKGRFTISRDNAKNTVYLQMNSLKPEDTAVYYCAALGGYYYRTRYNGDYWGHGTQVTVSS”, which “polyreactivity (PSR sort gate)” value is on record?
A: high polyreactivity

Q: For “QVQLVESGGGLVQAGGSLRLSCAASGSIFYGYAMGWYRQAPGKERELVAGISNGGSTNYADSVKGRFTISRDNAKNTVYLQLNSLKPEDTAVYYCNATYYSAYSYLYGYWGQGTQVTVSS”, which “polyreactivity (PSR sort gate)” value is on record?
A: low polyreactivity

Q: For “QVQLVESGGGLVQAGGSLRLSCAASGSIFYGYAMGWYRQAPGKERELVAVITDGGGSTYYADSVKGRFTISRDNAMNTVYLQMNSLKPEDTAVYYCNRVFPPTDYEFDSWGQGTQLTVSS”, which “polyreactivity (PSR sort gate)” value is on record?
A: low polyreactivity
